Legend:
[1] = system: T1, RovS (Streptococcus agalactiae NEM316), ORF:d252635c; assay: EMSA
T1 sequence: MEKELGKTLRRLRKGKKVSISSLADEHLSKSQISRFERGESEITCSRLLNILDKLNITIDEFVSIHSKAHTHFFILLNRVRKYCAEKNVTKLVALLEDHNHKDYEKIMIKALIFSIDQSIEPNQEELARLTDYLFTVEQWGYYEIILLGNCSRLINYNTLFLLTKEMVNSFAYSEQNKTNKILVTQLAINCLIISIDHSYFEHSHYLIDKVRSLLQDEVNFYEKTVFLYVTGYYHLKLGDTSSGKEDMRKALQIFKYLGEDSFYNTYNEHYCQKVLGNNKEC

[2] = system: T1, RovS (Streptococcus agalactiae NEM316), ORF:d252635c; assay: competition

Sequence: ATTAGTGACTTCTTTCATTGAAAATGATAGAATATAGGTGTATGGGAAACTTCCCAAAAATATTTAAGGAGATGTTTAGAAATGACTGCAACTAAACAACATAAAAAAGTTATCCTCGTTGGTGATGGTG (double strand) [PldhL probe]
- binding [1]: no binding
- binding [2]: no binding

Sequence: CTAACTTTTTTTCCTTTACGTAATCTTCTTAGTGTTTTTCCTAATTCTTTTTCCATTTTTATTTAAAAGACCCTTTAAATCCATTATATAATACAAGTACAAAATAGAAAATCAGAAAGG (double strand) [Pshp without the motif probe]
- binding ([1]; part of the binding motif deleted): no binding

Sequence: GCAATTTATTATTAATTTGTATGTTTAAAATTAAATAGTTGATATCTAAAACATGATATTTTTAAATTTTCCTTTAATATTATAAAGCATGATAGATAGTCATACTAACATTAAGATTTACAATGAGGTAATAGTATATT (double strand) [PfbsA probe]
- binding [1]: no binding
